The target in this assay is synthetic MBP-HIS-EBOV-GP fusion peptide (Zaire Ebolavirus (EBOV), UniProt P0AEX9 27-392 = MBP). Nature of the assay: ELISA on coated recombinant fusion protein. (In an ELISA, binding on a coated surface is turned into a signal by an enzyme label.)

B1: murine monoclonal antibody 3327 (antibody, V domains shown)
VH: EVQLQESGPSLGKPSQTLSLTCSVTGDSITSGYWNWIRKFPGSKLEYMGYITSSGSTYYNPSLKSRISITRDTSKNQYYLQLNSVTSEDTATYYCAREGARSSGGWYFDVWGAGTTVTVSS
VL: DIVMTQSHKFMSTSVGDRVSITCKASQDVSSAVVWYQQKPGQSPKLLIYWASTRHTGVPDRFTGSGSGTDYTLTISSVQAEDLALYYCQQHYSTPTFGGGTKLEIKR
Consider B1, for which the binding result was “no binding”.

The values above are taken from patent US20180016322A1 (INSERM INSTITUT NATIONAL DE LA SANTE ET DE LA RECHERCHE …, published 2018).
